The source of these data is patent US20140213531A1 (POLYPHOR, published 2014).

Bridges are numbered along the chain shown (N, C = ends). [ ]: non-standard residue; d: D form. Chg = N[C@H](C(=O)O)C1CCCCC1

The experiment has as its target T1, CathepsinG, from human neutrophils (human, UniProt P08311 21-244).
T1 sequence (looked up): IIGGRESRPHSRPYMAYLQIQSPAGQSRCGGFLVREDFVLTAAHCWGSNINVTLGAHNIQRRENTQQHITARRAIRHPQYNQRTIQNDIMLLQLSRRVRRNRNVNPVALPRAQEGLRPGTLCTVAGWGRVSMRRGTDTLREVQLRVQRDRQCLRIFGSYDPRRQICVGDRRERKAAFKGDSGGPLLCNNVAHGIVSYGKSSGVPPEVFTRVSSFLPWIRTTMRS
Put plainly: cell-based or functional assay.

Regarding cyclo(FCTKSDPPICS[dN]P) (disulfide 2-10) [Example 69], the IC50 turned out to be 68 nmol.

B1: Example 43 (peptide)
peptide: XCTKSDPPICD
HELM: PEPTIDE1{[Nle].C.T.K.S.D.P.P.I.C.D.[dP].P}$PEPTIDE1,PEPTIDE1,2:R3-10:R3|PEPTIDE1,PEPTIDE1,1:R1-13:R2$$$V2.0
SMILES: CCCC[C@@H]1NC(=O)[C@@H]2CCCN2C(=O)[C@H]2CCCN2C(=O)[C@H](CC(=O)O)NC(=O)[C@@H]2CSSC[C@H](NC1=O)C(=O)N[C@@H]([C@@H](C)O)C(=O)N[C@@H](CCCCN)C(=O)N[C@@H](CO)C(=O)N[C@@H](CC(=O)O)C(=O)N1CCC[C@H]1C(=O)N1CCC[C@H]1C(=O)N[C@@H]([C@@H](C)CC)C(=O)N2
In turn, B1 came in with an IC50 of 77 nmol.

B2: Example 29 (peptide)
peptide: XCTKSDPPICD
HELM: PEPTIDE1{[O=C([C@H](CCc1ccccc1)N[*:1])[*:2]].C.T.K.S.D.P.P.I.C.D.[dP].P}$PEPTIDE1,PEPTIDE1,2:R3-10:R3|PEPTIDE1,PEPTIDE1,1:R1-13:R2$$$V2.0
SMILES: CC[C@H](C)[C@@H]1NC(=O)[C@@H]2CCCN2C(=O)[C@@H]2CCCN2C(=O)[C@H](CC(=O)O)NC(=O)[C@H](CO)NC(=O)[C@H](CCCCN)NC(=O)[C@H]([C@@H](C)O)NC(=O)[C@@H]2CSSC[C@H](NC1=O)C(=O)N[C@@H](CC(=O)O)C(=O)N1CCC[C@@H]1C(=O)N1CCC[C@H]1C(=O)N[C@@H](CCc1ccccc1)C(=O)N2
With B2, the IC50 is 42 nmol.

B3: Example 33 (peptide)
peptide: XCTKSDPPICN
HELM: PEPTIDE1{[Cha].C.T.K.S.D.P.P.I.C.N.[dP].P}$PEPTIDE1,PEPTIDE1,2:R3-10:R3|PEPTIDE1,PEPTIDE1,1:R1-13:R2$$$V2.0
SMILES: CC[C@H](C)[C@@H]1NC(=O)[C@@H]2CCCN2C(=O)[C@@H]2CCCN2C(=O)[C@H](CC(=O)O)NC(=O)[C@H](CO)NC(=O)[C@H](CCCCN)NC(=O)[C@H]([C@@H](C)O)NC(=O)[C@@H]2CSSC[C@H](NC1=O)C(=O)N[C@@H](CC(N)=O)C(=O)N1CCC[C@@H]1C(=O)N1CCC[C@H]1C(=O)N[C@@H](CC1CCCCC1)C(=O)N2
In turn, B3 returned an IC50 of 45 nmol.

B4: Example 35 (peptide)
peptide: XCTKSDPPICD
HELM: PEPTIDE1{[Cha].C.T.K.S.D.P.P.I.C.D.[dP].P}$PEPTIDE1,PEPTIDE1,2:R3-10:R3|PEPTIDE1,PEPTIDE1,1:R1-13:R2$$$V2.0
SMILES: CC[C@H](C)[C@@H]1NC(=O)[C@@H]2CCCN2C(=O)[C@@H]2CCCN2C(=O)[C@H](CC(=O)O)NC(=O)[C@H](CO)NC(=O)[C@H](CCCCN)NC(=O)[C@H]([C@@H](C)O)NC(=O)[C@@H]2CSSC[C@H](NC1=O)C(=O)N[C@@H](CC(=O)O)C(=O)N1CCC[C@@H]1C(=O)N1CCC[C@H]1C(=O)N[C@@H](CC1CCCCC1)C(=O)N2
Molecule B4 gave an IC50 of 54 nmol.

B5: Example 45 (peptide)
peptide: XCTKSDPPICN
HELM: PEPTIDE1{[O=C([C@H](Cc1ccccc1Cl)N[*:1])[*:2]].C.T.K.S.D.P.P.I.C.N.[dP].P}$PEPTIDE1,PEPTIDE1,2:R3-10:R3|PEPTIDE1,PEPTIDE1,1:R1-13:R2$$$V2.0
SMILES: CC[C@H](C)[C@@H]1NC(=O)[C@@H]2CCCN2C(=O)[C@@H]2CCCN2C(=O)[C@H](CC(=O)O)NC(=O)[C@H](CO)NC(=O)[C@H](CCCCN)NC(=O)[C@H]([C@@H](C)O)NC(=O)[C@@H]2CSSC[C@H](NC1=O)C(=O)N[C@@H](CC(N)=O)C(=O)N1CCC[C@@H]1C(=O)N1CCC[C@H]1C(=O)N[C@@H](Cc1ccccc1Cl)C(=O)N2
Turning to B5, the IC50 is 47 nmol.

B6: Example 32 (peptide)
peptide: XCTKSDPPICY
HELM: PEPTIDE1{[Nc1ccc(C[C@H](N[*:1])C(=O)[*:2])cc1].C.T.K.S.D.P.P.I.C.Y.[dP].P}$PEPTIDE1,PEPTIDE1,2:R3-10:R3|PEPTIDE1,PEPTIDE1,1:R1-13:R2$$$V2.0
SMILES: CC[C@H](C)[C@@H]1NC(=O)[C@@H]2CCCN2C(=O)[C@@H]2CCCN2C(=O)[C@H](CC(=O)O)NC(=O)[C@H](CO)NC(=O)[C@H](CCCCN)NC(=O)[C@H]([C@@H](C)O)NC(=O)[C@@H]2CSSC[C@H](NC1=O)C(=O)N[C@@H](Cc1ccc(O)cc1)C(=O)N1CCC[C@@H]1C(=O)N1CCC[C@H]1C(=O)N[C@@H](Cc1ccc(N)cc1)C(=O)N2
In the case of B6, the IC50 came to 52 nmol.

B7: Example 66 (peptide)
peptide: XCTKSDPPXCY
HELM: PEPTIDE1{[O=C([C@@H](N[*:1])C1CCCCC1)[*:2]].C.T.K.S.D.P.P.[Cha].C.Y.[dP].P}$PEPTIDE1,PEPTIDE1,2:R3-10:R3|PEPTIDE1,PEPTIDE1,1:R1-13:R2$$$V2.0
SMILES: C[C@@H](O)[C@@H]1NC(=O)[C@@H]2CSSC[C@H](NC(=O)[C@H](CC3CCCCC3)NC(=O)[C@@H]3CCCN3C(=O)[C@@H]3CCCN3C(=O)[C@H](CC(=O)O)NC(=O)[C@H](CO)NC(=O)[C@H](CCCCN)NC1=O)C(=O)N[C@@H](Cc1ccc(O)cc1)C(=O)N1CCC[C@@H]1C(=O)N1CCC[C@H]1C(=O)N[C@@H](C1CCCCC1)C(=O)N2
As to B7, the IC50 was 48 nmol.

B8: Example 41 (peptide)
peptide: XCTKSDPPICN
HELM: PEPTIDE1{[Nle].C.T.K.S.D.P.P.I.C.N.[dP].P}$PEPTIDE1,PEPTIDE1,2:R3-10:R3|PEPTIDE1,PEPTIDE1,1:R1-13:R2$$$V2.0
SMILES: CCCC[C@@H]1NC(=O)[C@@H]2CCCN2C(=O)[C@H]2CCCN2C(=O)[C@H](CC(N)=O)NC(=O)[C@@H]2CSSC[C@H](NC1=O)C(=O)N[C@@H]([C@@H](C)O)C(=O)N[C@@H](CCCCN)C(=O)N[C@@H](CO)C(=O)N[C@@H](CC(=O)O)C(=O)N1CCC[C@H]1C(=O)N1CCC[C@H]1C(=O)N[C@@H]([C@@H](C)CC)C(=O)N2
With B8, the IC50 came to 49 nmol.

B9: Example 61 (peptide)
peptide: WCTKSDPPICS
HELM: PEPTIDE1{W.C.T.K.S.D.P.P.I.C.S.[dP].P}$PEPTIDE1,PEPTIDE1,2:R3-10:R3|PEPTIDE1,PEPTIDE1,1:R1-13:R2$$$V2.0
SMILES: CC[C@H](C)[C@@H]1NC(=O)[C@@H]2CCCN2C(=O)[C@@H]2CCCN2C(=O)[C@H](CC(=O)O)NC(=O)[C@H](CO)NC(=O)[C@H](CCCCN)NC(=O)[C@H]([C@@H](C)O)NC(=O)[C@@H]2CSSC[C@H](NC1=O)C(=O)N[C@@H](CO)C(=O)N1CCC[C@@H]1C(=O)N1CCC[C@H]1C(=O)N[C@@H](Cc1c[nH]c3ccccc13)C(=O)N2
B9 displayed an IC50 of 72 nmol.

B10: Example 62 (peptide)
peptide: XCTKSDPPICS
HELM: PEPTIDE1{[O=C([C@H](Cc1cccc2ccccc12)N[*:1])[*:2]].C.T.K.S.D.P.P.I.C.S.[dP].P}$PEPTIDE1,PEPTIDE1,2:R3-10:R3|PEPTIDE1,PEPTIDE1,1:R1-13:R2$$$V2.0
SMILES: CC[C@H](C)[C@@H]1NC(=O)[C@@H]2CCCN2C(=O)[C@@H]2CCCN2C(=O)[C@H](CC(=O)O)NC(=O)[C@H](CO)NC(=O)[C@H](CCCCN)NC(=O)[C@H]([C@@H](C)O)NC(=O)[C@@H]2CSSC[C@H](NC1=O)C(=O)N[C@@H](CO)C(=O)N1CCC[C@@H]1C(=O)N1CCC[C@H]1C(=O)N[C@@H](Cc1cccc3ccccc13)C(=O)N2
In turn, B10 showed an IC50 of 69 nmol. Regarding cyclo([Chg]CTK[AlloThr]DPPYCY[dP]P) (disulfide 2-10) [Example 67], the IC50 was found to be 48 nmol.

B11: Example 27 (peptide)
peptide: XCTKSDPPICN
HELM: PEPTIDE1{[O=C([C@H](CCc1ccccc1)N[*:1])[*:2]].C.T.K.S.D.P.P.I.C.N.[dP].P}$PEPTIDE1,PEPTIDE1,2:R3-10:R3|PEPTIDE1,PEPTIDE1,1:R1-13:R2$$$V2.0
SMILES: CC[C@H](C)[C@@H]1NC(=O)[C@@H]2CCCN2C(=O)[C@@H]2CCCN2C(=O)[C@H](CC(=O)O)NC(=O)[C@H](CO)NC(=O)[C@H](CCCCN)NC(=O)[C@H]([C@@H](C)O)NC(=O)[C@@H]2CSSC[C@H](NC1=O)C(=O)N[C@@H](CC(N)=O)C(=O)N1CCC[C@@H]1C(=O)N1CCC[C@H]1C(=O)N[C@@H](CCc1ccccc1)C(=O)N2
Molecule B11 came in with an IC50 of 48 nmol.

B12: Example 70 (peptide)
peptide: XCTKSDPPXCN
HELM: PEPTIDE1{[Nc1ccc(C[C@H](N[*:1])C(=O)[*:2])cc1].C.T.K.S.D.P.P.[Cha].C.N.[dP].P}$PEPTIDE1,PEPTIDE1,2:R3-10:R3|PEPTIDE1,PEPTIDE1,1:R1-13:R2$$$V2.0
SMILES: C[C@@H](O)[C@@H]1NC(=O)[C@@H]2CSSC[C@H](NC(=O)[C@H](CC3CCCCC3)NC(=O)[C@@H]3CCCN3C(=O)[C@@H]3CCCN3C(=O)[C@H](CC(=O)O)NC(=O)[C@H](CO)NC(=O)[C@H](CCCCN)NC1=O)C(=O)N[C@@H](CC(N)=O)C(=O)N1CCC[C@@H]1C(=O)N1CCC[C@H]1C(=O)N[C@@H](Cc1ccc(N)cc1)C(=O)N2
Consider B12, for which the IC50 amounted to 69 nmol.

B13: Example 34 (peptide)
peptide: XCTKSDPPICT
HELM: PEPTIDE1{[Cha].C.T.K.S.D.P.P.I.C.T.[dP].P}$PEPTIDE1,PEPTIDE1,2:R3-10:R3|PEPTIDE1,PEPTIDE1,1:R1-13:R2$$$V2.0
SMILES: CC[C@H](C)[C@@H]1NC(=O)[C@@H]2CCCN2C(=O)[C@@H]2CCCN2C(=O)[C@H](CC(=O)O)NC(=O)[C@H](CO)NC(=O)[C@H](CCCCN)NC(=O)[C@H]([C@@H](C)O)NC(=O)[C@@H]2CSSC[C@H](NC1=O)C(=O)N[C@@H]([C@@H](C)O)C(=O)N1CCC[C@@H]1C(=O)N1CCC[C@H]1C(=O)N[C@@H](CC1CCCCC1)C(=O)N2
As for B13, the IC50 is 56 nmol.
